Reference: the RNAGym collection of RNA variant scans (doi:10.7554/elife.80360)

B1: HDV Ribozyme (parent)
chain: GGCCGGCAUGGUCCCAGCCUCCUCGCUGGCGCCGGCUGGGCAACAUUCCGAGGGGACCGUCCCCUCGGUAAUGGCGAAUGGGACCCA

Variants of: B1
Assay: self-cleavage, relative activity (ratio to wild type); higher = more cleavage; co-transcriptional

Going from GGCCGGCAUGGUCCCAGCCUCCUCGCUGGCGCCGGCUGGGCAACAUUCCGAGGGGGCCGUCCCCUUGGUAAUGGCGAAUGGGACCCA to GGCAGGCAUGGUCCCAGCCUCCUCGCUGGCGCCGGCUGGGCAACAUUCCGAGGGGACCGUACCCUCGGUAAUGGCGAAUGGGACCCA, the self-cleavage falls from 0.937 to 0.219.

Going from GGCCGGCUUGGUCCCAGCCUCCUCGCUGGCACCGGCUGGGCAACAUUCCGAGGGGACCGUCCCCUCGGUAAUGGCGAAUGGGACCCA to GGCCGGCAUGGUCCAAGCUUCCUCGCUGGCGCCGGCUGGGCAACAUUCCGAGGGGACCGUCCCCUCGGUAAUGGCGAAUGGGACCCA, the self-cleavage falls from 0.405 to 0.089.

Going from GGCCGGCAUGGUCCCAGCCUCCUCGUUGGCGCCGGCUGGGCAACAUUCCGAGGGGACCGUCCCCUCCGUAAUGGCGAAUGGGACCCA to GGCCGGCAUGGUCCCAGCCUCCUCGCUGGCGCCGGCUGGGCAACAUUCCGAGGGGACCGACCCCUAGGUAAUGGCGAAUGGGACCCA, the self-cleavage falls from 1.12 to 0.972.

Compared with GGCCGGCAUGGUCCCAACCUCCUCGCUGGCGCCGGCAGGGCAACAUUCCGAGGGGACCGUCCCCUCGGUAAUGGCGAAUGGGACCCA, UGCCGGCAUGGUCCCAGCCUCCUCGCUGGCGCCGGCUGGGCAACAUUCCGAGGGGACCGUACCCUCGGUAAUGGCGAAUGGGACCCA is higher in self-cleavage: 0.0415 for the first, 0.326 for the second.

First: GGCCGGCAUGGUCCCAGCCUCCUCACUGGCGCCGGCGGGGCAACAUUCCGAGGGGACCGUCCCCUCGGUAAUGGCGAAUGGGACCCA
Second: GGCCGGCAUGGUCCCAGCCUCCUCGCUGUCGCCGGCUGGGCAACAUUCCGAGGGGACCGUCCCCUCGGUAAUGACGAAUGGGACCCA
The self-cleavage of the first is higher: 0.104 for the first, 0.0978 for the second.

Compared with GGCCGGCAUGGUCCCAGCCUCCUCGCUGGCGCCGGCUGGGCAACAUUACGAGGGGACCGUCCCCUCGUUAAUGGCGAAUGGGACCCA, GGCCGGCAUGGUCCCAGCCUCCUCGCUGGCGCCGGCUGGGCAACAUUCCGAGUGAACCGUCCCCUCGGUAAUGGCGAAUGGGACCCA is higher in self-cleavage: 1.1 for the first, 1.18 for the second.

Going from GGCCGGCAUGGUCCCAGCCUCCUCGCUGGCGCCGGCUGGCCAACAUUCCGAGGGUACCGUCCCCUCGGUAAUGGCGAAUGGGACCCA to GGCCGGCAUGGUCCCAGCCUUCCCGCUGGCGCCGGCUGGGCAACAUUCCGAGGGGACCGUCCCCUCGGUAAUGGCGAAUGGGACCCA, the self-cleavage falls from 0.205 to 0.175.

Going from GGCCGGCAUGGUCCCAGCCUCCUCGCUGGCGCAGGCUGGGCAACAUUCCGAGGGGACCGUCCCCUCGGUAAUGGCGAAUGGUACCCA to GGCCGGCAUGUUCCCAGCCUCCUCGCUGGCGCCGGCUGGGCAACAUUCCGAGGGGACCGUCCCCUCGGUAAUGGCGAAUGCGACCCA, the self-cleavage rises from 0.0332 to 0.126.

First: GGCCGGAAUGGUCCCAGCCUCCUCGCUGGCGCCGGCUGGGCAACAUUCCGAGGGGACCGUCCCAUCGGUAAUGGCGAAUGGGACCCA
Second: GGCCGGCAUGGUCCCAGCCUCCUCGCUGGCGCCCGCUGGGCAACAUUCCGAGGGGACCGUCCCCUCGGUAAUGGCGAAUGGGACACA
The self-cleavage of the first is lower: 0.227 for the first, 0.249 for the second.

Compared with GGCCGGCAUGGUCCCGGCCUCCUCGCUGGCGCCGGCUGGGCAACAUUCCGAGGGGAUCGUCCCCUCGGUAAUGGCGAAUGGGACCCA, GGCCGGCAUGGUCCCAGCCUCCUCGUUGGCGCGGGCUGGGCAACAUUCCGAGGGGACCGUCCCCUCGGUAAUGGCGAAUGGGACCCA is lower in self-cleavage: 1.14 for the first, 0.389 for the second.

First: GGCCGGCAUGGUCCCAGCCUCCUCGCUGGCGCCGGCUGGGCAACAUGCCGAGGGGACCGUCCCCUCGGUAAUGGCGAAUGGGCCCCA
Second: GGCCGGCAUUGUCCCAGCCUCCUCGCUGGCGCCGGCUGGGCAACAUUCCGAGGGGACCGUCCCCUCGGUCAUGGCGAAUGGGACCCA
The self-cleavage of the first is lower: 0.434 for the first, 0.678 for the second.

First: GGCCGGCAUGGUCCCGGCCUCCUCGCUGGCGCCGGCUGGGCAACAUUCCGAGGGGACCGUCCCCUCGGUAAUGGCGAAUGGGACCCC
Second: GGCCGGCAUGGUCCCAGCCUCCUCGCUGGCGCCGGCUGGGCAACAUUCCGAGGGGACCGUCCCGUAGGUAAUGGCGAAUGGGACCCA
The self-cleavage of the first is higher: 1.09 for the first, 0.888 for the second.

First: GGCCGGCAUGGUCCCAGCCUCCUCGCUGGCGCCGGCUGGGCAACACUCCGAGGGUACCGUCCCCUCGGUAAUGGCGAAUGGGACCCA
Second: GGGCGGCAUGGUCCCAGCCUCCUCGCUGGCGCCGGCUGUGCAACAUUCCGAGGGGACCGUCCCCUCGGUAAUGGCGAAUGGGACCCA
The self-cleavage of the first is higher: 0.831 for the first, 0.0989 for the second.

Going from GGCCGGCAUGGUCCGAGCCUCCUCGCUGGCGCCGGCUGGGCAACAUUCCGAGGGGACCGUCCCCUCGGUAAUGGCGAAUGGGACCCA to GGCCAGCAUGGUCCCAGCCUCCUCGUUGGCGCCGGCUGGGCAACAUUCCGAGGGGACCGUCCCCUCGGUAAUGGCGAAUGGGACCCA, the self-cleavage falls from 0.663 to 0.511.

Going from GGCCGGCAUGGUCCCAGCCUCGUCGCUGGCGCCGGCUGGGCAACAUUCCGAGGGGACCGUCCCCUCGGUAAUGGCGAUUGGGACCCA to GGCCAGCAUGGUCCCAGCCUCCUCGCUGGCGCCGGCUGGGCAACGUUCCGAGGGGACCGUCCCCUCGGUAAUGGCGAAUGGGACCCA, the self-cleavage rises from 0.0396 to 0.196.

First: GGCCGGCAUGGUCCCAGCCUCCUCGCUGGCGCCGGCUGGGCACCAUUCCGAGGGGACCGUACCCUCGGUAAUGGCGAAUGGGACCCA
Second: GGCCGGCAUGGUCCCAGCCUCCUCGCUGGCGCCGGUUGGGCAACAUUCCGAGGGGACCGUCCCCUCAGUAAUGGCGAAUGGGACCCA
The self-cleavage of the first is lower: 0.306 for the first, 0.712 for the second.
